From the DeepSol protein solubility set come the findings set out here.

The nature of the series: soluble on expression in E. coli; label from the status in PepcDB or PDB records.
Consider “MGNFHATTIFAVHHNGECAMAGDGQVTMGNAVVMKHTARKVRKLFQGKVLAGFAGSVADAFTLFEMFEGKLEEYNGNLQRAAVEMAKQWRGDKMLRQLEAMLIVMDKTTMLLVSGTGEVIEPDDGILAIGSGGNYALSAGRALKQYASEHLTAKQIAKASLEIAGDICVYTNHNIIVEEL”, for which the “soluble on expression in E. coli” value is “not soluble”. In the case of “MSGAGHSLNSDPVTTIATSSSEPVTSPSSASHVPVQTAPASHGAPSSVASQPPASVDGKAGAPDEARTASSASNPQGSEHPGSVDPAATTTAATTSASTTSITSTAATTTTTTTTGTTATGRVSPTIPPETLFHDAIKRCNNCLFLIRKLRNKQDHIARLFLDTSGNDQAEFNSAFQNYKDFGLMVHEVMMFYDKLDHIARHLPKALPPIDNINLMRTLYTQEHTMCHININNLLEKMIDCGNWNEGNFQTFFYLSELLRCGSTRKYSNLPEQRLVPPAMFHSQATNSHAAFEHAFNGLRKEIANKSLGIYPKVLQRTTCSLIIEFLFGCGGAKPGEKNTDKEIVYTIKFLIIERNGSIEYINIMAPTEDWHMVNDYAIPTINPFAPSRYEVYRRLTKQANIHLFNCFAQNRWTAGTLFHFISLYGKFRELFTTKCRSCKQVLSRKNFLPPLIFDIRNPNNAAHEVCR”, the “soluble on expression in E. coli” value is “not soluble”. For “MNLFASEIFVFTPKGEIKTMPQNCTALDFAFSIHTFLGSHCIGAKVNHKLVPLSHKLQSGDQVEILTSKSQHVQPLEHHHHHH”, the “soluble on expression in E. coli” value is “not soluble”. With “MKLNAIHHVAIIVSDYHLSKDFYVNKLGFEIIRENYRPDKHDYKLDLSCGRIELEIFGKVTSDPNYQAPPKRVSEPEFKSEACGLRHLAFRVTNIESYVDDLKSLGIPVEPIRHDDYTGEKMTFFFDPDGLPLELHE”, the “soluble on expression in E. coli” value is listed as “not soluble”. Consider “MANKLRNYTINFGPQHPAAHGVLRMILELDGEQIVRADPHIGLLHRGTEKLAETKTYLQALPYMDRLDYVSMMVNEQAYCLAVEKLVGIDVPIRAQYIRVMFAEVTRILNHLMGIGSHAFDIGAMTAILYAFRDREELMDLYEAVSGARMHAAYFRPGGVYRDLPDFMPKYEGSKFRNAKVLKQLNESREGTMLDFIDAFCERFPKNIDTLETLLTDNRIWKQRTVGIGVVSPERAMQKGFTGVMLRGSGVEWDVRKTQPYEVYDKMDFDIPVGVNGDCYDRYLCRMEEMRQSVRIIKQCSEWLRVNPGPVITTNHKFAPPKRTEMKTGMEDLIHHFKLFTEGMHVPEGETYTAVEHPKGEFGVYIISDGANKPYRLKIRAPGFAHLQGMDEMAKGHMLADVVAIIGTQDIVFGEVDR”, for which the “soluble on expression in E. coli” value is given as “not soluble”.

As for “MGSDKIHHHHHHMPETLNLNYYYGNEADQYSFYRIPKTLLTDRRYKGVSLEAKVLYGLLLDRMGLSARNGWLDNNGRVFLYFTQEEAMTMLGCGKDKVTKLFRELEGIGLMERKKQGQGHPARIYVKNFILEPEPTAPVQTAENQQSRPLPSAAVKTAEKPQSAPRKTSGQECGISAPNNTDINKTEKSDTDLSILPPTPSAVSSPAGKRAPRRMGLDEMESYRELIMENIDYDILLERYPYEKDLLDGYVELMLEVCCSTRESVRICGQEVPTEVIKSRFLKLNSEHIGYVMDSLKSNTAKIGNIKAYTLAALYNAPVTMGQYYTSLVSHDMAHGLLSG”, the “soluble on expression in E. coli” value is listed as “not soluble”. The same measure for “FLSDGKEIIAEKDEAIRETVKLLEEGHILAIKGIGGTHLACKVGEDDVVLELRKRLGRPTQPFAVMSKIEYTELFAEFDEDEKNALLSLRRPIVVLKKSQDYDKYFSKYVSNLDTIGVMFPYSGLHYLLFDKEIAYVMTSANLPGLPMVKDNDEILKKLNGIADYFLLHNRRIVNRCDDSVVKKVADRLVFLRRSRGFAPEPVKV”: “not soluble”. As for “MITMKIEDVYIWDINARWLGVTPYQLMENAGASVARVIEEKFGKNLKIAVFCGTGNNGGDGFVAARHLSYENDVTVFLIGEEVKIRSEEAKLNWNILKNLDFVKIKVLKDSSQIRELDLSEFDIIVDALLGAGTRGKPREPIKSAIEKINEYSGKVKIVSIDLPSGYPSEIRVKADFAVTFQWDKEEFKDFKRIIAKIGYPKELKYLVGPAHVKFAYKRKGEHKGQNGKLLIIGGSENYYGAPVLAASAAKHLVDLVFLLLPQNAARRVNDPDLIVREVDGLNFTPEHIKSALELVEKVDAIVIGPGIGVREETKEFVKGIIERVEKPIVVDADGLKIIAEFKDILKGKEIVLTPHAGEFKLLFGEKVPEDLVEKGKVVMRRAKEIGATILLKGKYDVISDGKVWLYNKTGNRGMTTGGTGDVLAGTVGAFLALGNKALKAAAAGAFLVGFAGDLVMEEKGEAFTARDVAEKIPIALKKIIEF”, the “soluble on expression in E. coli” value is reported as “soluble”. With “MKFTSLLTAGALASTLVSPAIMAADTASASLSDAQKKEIEKVIHDYLINNPEVLLEASQALQQKQQQNMQQQAQAAIQENAEQVFQGKLTTVGNPKGNVTLVEFFDYQCIHCKKMASTIENLVKKDSGLRVIYKEFPIFGKTSDLASRVALAAGMQGKYQAMHNALITIDKRLDEKTVMDAAKSIGLDMQKLKKDMDSQEVTDILDANRQLAEKLHLMGTPAFIIGSTPDGQYKKGSEISFIPGATSEQSLRELIKKAAGN”, the “soluble on expression in E. coli” value is recorded as “not soluble”. The same measure for “MKKAYLVWGMAALLSLGVAQQAGGLTLEGVEALRQEARKAYPVGFVDLAPWKRALEAAEALAKQNPNDLRALRLLAEIYTETQWAIRAWEAWMNYREKGGTWDEAARQAAAKVARTLAFYANQRGDRAEAERWAAQAQAVEAGQ”: “soluble”; for “MSEAIIAKKAEQVELIAEKMKAAASIVIVDSRGLTVDQDTVLRRSLRESGVEFKVIKNSILTRAAEKAGLDELKDVFVGPSAVAFSNEDVIAPAKVINDFTKTADALEIKGGAIEGAVSSKEEIQALATLPNREGMLSMLLSVLQAPVRNVAYAVKAVAENKEGAA”: “not soluble”. The same measure for “MARRGNKAIRATVSMKIALSEPLLVLVNNYVKALRFTLFWLKENVPNPEEKGVLSKVHEALYEKLREEYNLPSKVAEDCYREALATYKGWYNNPRRGRFPRVYRPTVWLTPRASYNVDFEAMTVRIVSVGELSILGYPRNLKEYMGWKMKEARLVIRDDKAFLKVVFEKEEQKVEPKESIAVDINMAEVVVGKDDKNYVRIPTRLEEVHHWKSLAERLLKKYPRRWRENKRILYRVRSFHLKARRIMEDFARKVGKWVVDVAKRMGVNVIKLESLKNLIKSVEKLSKEFRDKLYLMQYRRLQYWISWQAKKRGMTVEFVNPSYSSVSCPKCGKRMVEVSHRWFKCSCGYENDRDVIAIMNLNGRGSLTLSTAPQMRDVNPNRLEHHHHHH”: “not soluble”. For the sequence “MKAIIISIGDELLKGHRVNTNAPFIARELGNIGIPVTRIITCSDDPQAIRDSVTLALTEAEAVFVTGGLGPTNDDRTRDAVRALLGRGLALDEPSFERIADYFRRRNRPVTEVMKDQAMVIEGSIAIPNTKGTAPGMIIECAPRFAGRHLVLMPGVPAEMEAMMRLTVVPFFAPLSGAFIRHTPVMTMGIGETQLADMIVEVEDSLPSGTTLAYLPHAAGVSLMVSTSGA”, the “soluble on expression in E. coli” value was “not soluble”. Turning to “MINAVGNPQTLLLLGGTSEIGLAICEEYLKKAPMRVILAALPGDPGRDAAVAQLKAAGANAVDVIDFDAVDTESHPKVIDEAWAKSDVDVAIVAFGLLGDAEELWQNQRKAVQIAEVNYTAAVSVGVLVGEKMKAQGFGQIIAMSSAAGERVRRSNFVYGSTKAGLDGFYLGLGEALREFGPRVLVIRPGQVRTRMSADVKEAPLTVNKEDVAKLAVTSAEKGKDLVWAPGAFRYVMMILRHIPRPIFKKLPI”, the “soluble on expression in E. coli” value was “not soluble”. With “MATAHYHGSCQCGSVSFEVDADLDHTVICNCSRCKRLGSTLAFAPREKFTLLSGEDKLSEYLFNKHKIHHFFCSTCGIESFAYADGPDGTPMVAVNANCLDGVDPRALKSQAFDGAA”, the “soluble on expression in E. coli” value is “not soluble”. As for “MGSDKIHHHHHHMYELYFNWKFIWKKVGLASLTTNSTTYHSEPAYRVNLLAISSKEADFFFKMRDTLTSVMTEKLEPRYFRKGAEEGKRYTVDEARFSFRNGMCYVNQKRVRKDGSITETEQSDNRCIYDMLTILAQARSFDPKEYTIGQRIQFPMATGRRVEEQTLIYRGIKKITAENDTTYRCLIFSLVEYNKKGKEKEVITFYVTDDRNHLPVRLDMHLNFGSAKAFLKSVSGYRHPQTSIVTK”, the “soluble on expression in E. coli” value is “not soluble”. Turning to “MGSDKIHHHHHHMRYTYRHIGILTISLIVASCSFSQKQADNNHDKDMNPNVKIVVLDPGHFHASLLQKNPLASVNDTIRVYAPEGAEVKQYLNDINSYNQRAENPTSWKEEIYIGGDYLSRMLSDRQGDVVVLAGNNQKKTNYILEAIKAGYNVLSDKPLAINKKDFDLLIQAYQLAKERKLLLYDLMTERYDILNIIEKALLNNPDLFGELQKGSLNDPSVSMESVHHFFKNVSGKPLIRPVWYYDTEQQGEGIADVTTHLIDLVNWQCFPNETIRYQSDVEVLKARHWPTRITLPEFSQSTQADTFPAFLNKYINNNVLEVLANGSLNYTVKGIHIGMKVIWNYTPPSDGGDTFTSLKKGSKATLKTIQDKESGFVKQLYIQRAADSDHSEFESQLQKAIKQLQATYPFLSVKKMNEGLYLIDIPQADRLGHEAHFSKVAEAFLGYLHDKNMPEWENENTISKYYITTTAVELAKKEK”, the “soluble on expression in E. coli” value was “not soluble”.

As for “ACRISPGQINQVRPKLPLLKILHAAGAQGEMFTVKEVMHYLGQYIMVKQLYDQQEQHMVYCGGDLLGELLGRQSFSVKDPSPLYDMLRKNLVTLATATTDA”, the “soluble on expression in E. coli” value was “soluble”.

For “PKDDRLSAWKFWALYAADTGGALRIDAGAVAAVTAGGNSLLAVGITEVIGDFHAGEIVEILGPEGEIIGRGEVAYDSAVLITMLGKQTAQLPEGLQRPVVHADYLSDYASRA”, the “soluble on expression in E. coli” value was “not soluble”. Consider “MIVFSSLQIRRGVRVLLDNATATINPGQKVGLVGKNGCGKSTLLALLKNEISADGGSYTFPGSWQLAWVNQETPALPQAALEYVIDGDREYRQLEAQLHDANERNDGHAIATIHGKLDAIDAWSIRSRAASLLHGLGFSNEQLERPVSDFSGGWRMRLNLAQALICRSDLLLLDEPTNHLDLDAVIWLEKWLKSYQGTLILISHDRDFLDPIVDKIIHIEQQSMFEYTGNYSSFEVQRATRLAQQQAMYESQQERVAHLQSYIDRFRAKATKAKQAQSRIKMLERMELIAPAHVDNPFRFSFRAPESLPNPLLKMEKVSAGYGDRIILDSIKLNLVPGSRIGLLGRNGAGKSTLIKLLAGELAPVSGEIGLAKGIKLGYFAQHQLEYLRADESPIQHLARLAPQELEQKLRDYLGGFGFQGDKVTEETRRFSGGEKARLVLALIVWQRPNLLLLDEPTNHLDLDMRQALTEALIEFEGALVVVSHDRHLLRSTTDDLYLVHDRKVEPFDGDLEDYQQWLSDVQKQENQTDEAPKENANSAQARKDQKRREAELRAQTQPLRKEIARLEKEMEKLNAQLAQAEEKLGDSELYDQSRKAELTACLQQQASAKSGLEECEMAWLEAQEQLEQMLLEGQSN”, for which the “soluble on expression in E. coli” value is “soluble”. Take “MNKKEIQAYQSAFEKFNPFYGVDFPITSVKLCELINKMRNDHNEKVVELRHDHLMNKIREFSEQVNAPNFRVVESSYKDTKGEDRKCYLLGKTECRAIAATESKSVCYMIMVYLDQLEQIFEKAKEAKATEFDRKLSKQGVTWREACRTVGIEHPDLALK”: the “soluble on expression in E. coli” value was “not soluble”.

Regarding “MSLIHEISENEKPREKLQNYGIEALSSSELVALIIETGTKNESVLTIANRIIMKFKNVGEMQYASIEEFQLVNGIGIAKASKIMAAIELGRRIGIVTEQEEVVVRCPEDAVKLVMPELAFLFQEHFHCLFLNTKNQVIYRQTIFVGGLNASIVHPREVFRLALRKSAASIMCFHNHPSGDPTPSSEDLLVTKRLAEAGNIVGITLLDHIIIGKNKYISLKEKGYFEGHHHHHH”, the “soluble on expression in E. coli” value was “not soluble”.
